Results reported in paper PMC10175485, “Detecting recurrent passenger mutations in melanoma by targeted UV damage sequencing”.

Target: T1, ETS1 DNA-binding domain (Ets-1 ΔN280) (Mus musculus (murine), UniProt P27577 281-440, del1-280)
T1 sequence: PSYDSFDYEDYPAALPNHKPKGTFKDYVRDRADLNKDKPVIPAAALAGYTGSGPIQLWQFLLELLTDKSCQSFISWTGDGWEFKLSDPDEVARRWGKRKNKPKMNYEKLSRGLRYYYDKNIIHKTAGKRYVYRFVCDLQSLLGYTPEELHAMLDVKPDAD
Assay: EMSA; not stated in the material (as described previously, ref 25)
Settings: protein: recombinant; tags: C-terminal His6 removed by thrombin; label: 5' 32P on strand 1 (STK19-RVS); 5' biotin on strand 2 (STK19-FWD); blunt

B1: STK19 D89 oligonucleotide (STK19-RVS/STK19-FWD) (dsDNA)
DNA 1: CCTGAAAATAGGGTCTTCCGGCGCAGAGCA
DNA 2: TGCTCTGCGCCGGAAGACCCTATTTTCAGG
- binding result: binds
